Target: HuROR2-mFc
Experiment: ELISA

Substance	EC50 (pH 6.0, 1.26 g/L sodium bicarbonate, 0.09 g/L L-lactic acid) [µg/mL]	EC50 (pH 7.4, 1.26 g/L sodium bicarbonate, 0.09 g/L L-lactic acid)	EC50 (pH 6.0, 2.5 g/L sodium bicarbonate) [µg/mL]	EC50 (pH 7.4, 2.5 g/L sodium bicarbonate)
BA302	0.0119	no meaningful EC50 could be calculated	–	–
BA3021	–	–	0.0563	no meaningful EC50 could be calculated

From PMC11988251
